18 molecules from patent US20180155451A1 (published 2018) can be followed below.

The chains are these.
B1: GpH7-A5/GpH7-B3 variant S324_01G/GpL16-k0 (heterodimerized antibody, He Ab) (antibody, human IgG1, kappa)
heavy 1: not shown
heavy 2: not shown
light: DIVMTQSPLSLPVTPGEPASISCQASESLVHSNRNTYLHWYLQKPGQSPQLLIYKVSNRFSGVPDRFSGSGSGTDFTLKISRVEAEDVGVYYCSQNTHVPPTFGQGTKVEIERTVAAPSVFIFPPSDEQLKSGTASVVCLLNNFYPREAKVQWKVDNALQSGNSQESVTEQDSKDSTYSLSSTLTLSKADYEKHKVYACEVTHQGLSSPVTKSFNRGEC
notes: Mutation in one H chain only; also called S324_01G He Ab
B2: GpH7-A5/GpH7-B3 variant T335_08L/GpL16-k0 (heterodimerized antibody, He Ab) (antibody, human IgG1, kappa)
heavy 1: not shown
heavy 2: not shown
light: B1 light
notes: Mutation in one H chain only; also called T335_08L He Ab
B3: GpH7-A5/GpH7-B3 variant T335_09D/GpL16-k0 (heterodimerized antibody, He Ab) (antibody, human IgG1, kappa)
heavy 1: not shown
heavy 2: not shown
light: B1 light
notes: Mutation in one H chain only; also called T335_09D He Ab
B4: GpH7-A5/GpH7-B3 variant Y296_20W/GpL16-k0 (heterodimerized antibody, He Ab) (antibody, human IgG1, kappa)
heavy 1: not shown
heavy 2: not shown
light: B1 light
notes: Mutation in one H chain only; also called Y296_20W He Ab
B5: GpH7-A5/GpH7-B3 variant S239_18N/GpL16-k0 (heterodimerized antibody, He Ab) (antibody, human IgG1, kappa)
heavy 1: not shown
heavy 2: not shown
light: B1 light
notes: Mutation in one H chain only; also called S239_18N He Ab
B6: GpH7-B3 variant Y300_08L/GpL16-k0 (homodimerized antibody, Ho Ab) (antibody, human IgG1, kappa)
heavy: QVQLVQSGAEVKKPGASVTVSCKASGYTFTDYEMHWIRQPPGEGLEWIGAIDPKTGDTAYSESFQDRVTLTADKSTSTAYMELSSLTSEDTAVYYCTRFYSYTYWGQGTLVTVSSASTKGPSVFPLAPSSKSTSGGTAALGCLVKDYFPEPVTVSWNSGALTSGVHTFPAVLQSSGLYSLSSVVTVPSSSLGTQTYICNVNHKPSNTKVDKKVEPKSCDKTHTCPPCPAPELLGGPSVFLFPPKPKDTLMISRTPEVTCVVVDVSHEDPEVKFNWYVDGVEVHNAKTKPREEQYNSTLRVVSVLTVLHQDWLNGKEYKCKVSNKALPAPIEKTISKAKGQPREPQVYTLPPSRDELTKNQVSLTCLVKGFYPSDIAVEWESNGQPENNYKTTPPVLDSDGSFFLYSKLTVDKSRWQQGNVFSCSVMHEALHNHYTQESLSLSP
light: B1 light
notes: Mutation in both H chains; also called Y300_08L Ho Ab
B7: GpH7-B3 variant T335_09D/GpL16-k0 (homodimerized antibody, Ho Ab) (antibody, human IgG1, kappa)
heavy: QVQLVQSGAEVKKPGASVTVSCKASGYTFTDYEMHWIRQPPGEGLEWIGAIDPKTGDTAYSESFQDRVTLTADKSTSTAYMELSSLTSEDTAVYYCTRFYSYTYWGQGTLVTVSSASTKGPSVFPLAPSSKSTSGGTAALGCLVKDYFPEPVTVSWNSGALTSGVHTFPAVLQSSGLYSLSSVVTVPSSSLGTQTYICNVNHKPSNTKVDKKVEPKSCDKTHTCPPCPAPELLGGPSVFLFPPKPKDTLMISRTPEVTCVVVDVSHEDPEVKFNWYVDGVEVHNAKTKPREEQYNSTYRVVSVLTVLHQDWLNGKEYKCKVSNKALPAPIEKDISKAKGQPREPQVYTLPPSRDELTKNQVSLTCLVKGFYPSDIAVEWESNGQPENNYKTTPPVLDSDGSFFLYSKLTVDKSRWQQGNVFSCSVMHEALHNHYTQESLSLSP
light: B1 light
notes: Mutation in both H chains; also called T335_09D Ho Ab
B8: GpH7-B3 variant T335_08L/GpL16-k0 (homodimerized antibody, Ho Ab) (antibody, human IgG1, kappa)
heavy: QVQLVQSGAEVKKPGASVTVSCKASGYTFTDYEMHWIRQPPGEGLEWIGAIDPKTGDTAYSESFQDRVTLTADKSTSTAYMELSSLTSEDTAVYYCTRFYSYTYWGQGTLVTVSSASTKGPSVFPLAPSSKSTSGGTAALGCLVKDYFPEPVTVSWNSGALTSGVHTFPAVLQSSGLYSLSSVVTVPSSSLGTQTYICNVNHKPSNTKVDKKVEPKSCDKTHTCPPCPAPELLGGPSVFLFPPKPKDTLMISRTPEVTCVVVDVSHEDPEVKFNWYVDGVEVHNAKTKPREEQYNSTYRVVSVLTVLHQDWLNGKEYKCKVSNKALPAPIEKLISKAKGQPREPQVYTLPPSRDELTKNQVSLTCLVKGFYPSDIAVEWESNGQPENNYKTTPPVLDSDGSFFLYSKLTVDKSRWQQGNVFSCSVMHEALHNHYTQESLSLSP
light: B1 light
notes: Mutation in both H chains; also called T335_08L Ho Ab
B9: GpH7-A5/GpH7-B3 variant T335_05P/GpL16-k0 (heterodimerized antibody, He Ab) (antibody, human IgG1, kappa)
heavy 1: not shown
heavy 2: not shown
light: B1 light
notes: Mutation in one H chain only; also called T335_05P He Ab
B10: GpH7-B3 variant Y296_20W/GpL16-k0 (homodimerized antibody, Ho Ab) (antibody, human IgG1, kappa)
heavy: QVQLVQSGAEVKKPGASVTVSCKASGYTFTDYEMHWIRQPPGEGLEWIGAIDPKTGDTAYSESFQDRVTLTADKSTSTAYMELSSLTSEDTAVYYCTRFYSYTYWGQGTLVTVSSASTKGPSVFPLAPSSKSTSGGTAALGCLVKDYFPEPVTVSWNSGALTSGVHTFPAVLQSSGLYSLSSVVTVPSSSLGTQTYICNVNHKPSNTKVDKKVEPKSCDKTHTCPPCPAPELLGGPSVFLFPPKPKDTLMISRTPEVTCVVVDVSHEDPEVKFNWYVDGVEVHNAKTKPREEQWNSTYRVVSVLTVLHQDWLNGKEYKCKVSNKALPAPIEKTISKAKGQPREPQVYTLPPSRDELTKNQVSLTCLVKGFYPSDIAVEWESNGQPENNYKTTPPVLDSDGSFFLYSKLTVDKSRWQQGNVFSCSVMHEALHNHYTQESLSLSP
light: B1 light
notes: Mutation in both H chains; also called Y296_20W Ho Ab
B11: GpH7-A5/GpH7-B3 variant S337_01G/GpL16-k0 (heterodimerized antibody, He Ab) (antibody, human IgG1, kappa)
heavy 1: not shown
heavy 2: not shown
light: B1 light
notes: Mutation in one H chain only; also called S337_01G He Ab
B12: GpH7-A5/GpH7-B3 variant S324_20W/GpL16-k0 (heterodimerized antibody, He Ab) (antibody, human IgG1, kappa)
heavy 1: not shown
heavy 2: not shown
light: B1 light
notes: Mutation in one H chain only; also called S324_20W He Ab
B13: GpH7-B3 variant T335_06M/GpL16-k0 (homodimerized antibody, Ho Ab) (antibody, human IgG1, kappa)
heavy: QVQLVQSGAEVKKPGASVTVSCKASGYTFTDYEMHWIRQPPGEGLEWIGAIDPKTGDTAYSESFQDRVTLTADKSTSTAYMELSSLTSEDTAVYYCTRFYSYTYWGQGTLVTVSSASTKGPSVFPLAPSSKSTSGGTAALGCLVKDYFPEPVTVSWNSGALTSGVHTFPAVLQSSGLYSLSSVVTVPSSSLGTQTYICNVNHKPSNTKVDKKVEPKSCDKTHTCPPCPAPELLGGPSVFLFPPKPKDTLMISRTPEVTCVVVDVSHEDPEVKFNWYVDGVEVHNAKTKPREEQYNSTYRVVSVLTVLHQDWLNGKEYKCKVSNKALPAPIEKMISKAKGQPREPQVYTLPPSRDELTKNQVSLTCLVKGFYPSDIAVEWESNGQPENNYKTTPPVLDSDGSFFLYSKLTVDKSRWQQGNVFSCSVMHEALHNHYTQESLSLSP
light: B1 light
notes: Mutation in both H chains; also called T335_06M Ho Ab
B14: GpH7-B3 variant S337_16H/GpL16-k0 (homodimerized antibody, Ho Ab) (antibody, human IgG1, kappa)
heavy: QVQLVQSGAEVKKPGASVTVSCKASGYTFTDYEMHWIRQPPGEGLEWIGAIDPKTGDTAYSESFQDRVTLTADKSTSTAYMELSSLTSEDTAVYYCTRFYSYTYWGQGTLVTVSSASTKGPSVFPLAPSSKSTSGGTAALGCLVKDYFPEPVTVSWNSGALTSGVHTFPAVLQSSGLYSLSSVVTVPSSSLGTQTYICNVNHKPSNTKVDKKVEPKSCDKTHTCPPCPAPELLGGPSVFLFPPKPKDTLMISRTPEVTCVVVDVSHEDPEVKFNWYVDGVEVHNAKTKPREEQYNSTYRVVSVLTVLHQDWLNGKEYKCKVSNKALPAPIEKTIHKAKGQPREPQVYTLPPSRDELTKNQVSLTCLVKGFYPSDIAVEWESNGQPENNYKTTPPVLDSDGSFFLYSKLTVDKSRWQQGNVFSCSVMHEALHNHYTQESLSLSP
light: B1 light
notes: Mutation in both H chains; also called S337_16H Ho Ab
B15: GpH7-A5/GpH7-B3 variant S324_06M/GpL16-k0 (heterodimerized antibody, He Ab) (antibody, human IgG1, kappa)
heavy 1: not shown
heavy 2: not shown
light: B1 light
notes: Mutation in one H chain only; also called S324_06M He Ab
B16: GpH7-A5/GpH7-B3 variant S337_16H/GpL16-k0 (heterodimerized antibody, He Ab) (antibody, human IgG1, kappa)
heavy 1: not shown
heavy 2: not shown
light: B1 light
notes: Mutation in one H chain only; also called S337_16H He Ab
B17: GpH7-A5/GpH7-B3 variant T335_06M/GpL16-k0 (heterodimerized antibody, He Ab) (antibody, human IgG1, kappa)
heavy 1: not shown
heavy 2: not shown
light: B1 light
notes: Mutation in one H chain only; also called T335_06M He Ab
B18: GpH7-A5/GpH7-B3 variant S324_14T/GpL16-k0 (heterodimerized antibody, He Ab) (antibody, human IgG1, kappa)
heavy 1: not shown
heavy 2: not shown
light: B1 light
notes: Mutation in one H chain only; also called S324_14T He Ab

T1 sequence (P08637 17-208): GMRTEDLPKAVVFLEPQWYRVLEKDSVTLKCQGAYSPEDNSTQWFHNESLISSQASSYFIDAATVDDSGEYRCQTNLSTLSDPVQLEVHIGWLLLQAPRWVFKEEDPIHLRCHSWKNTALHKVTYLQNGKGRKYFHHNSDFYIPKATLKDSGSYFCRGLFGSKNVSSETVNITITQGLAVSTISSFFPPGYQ

The experiment concerns the target T1, FcγRIIIa extracellular domain with C-terminal His tag (human, UniProt P08637 17-208).
T1 construct: extracellular domain; also called 3a; FcgRIIIa
The experiment can be described thus: SPR (Biacore), antibody captured on antigen-peptide chip, FcγR analyte, relative binding.
On to B1, for which the He/Con_3a is 105 % of GpH7-A5/GpH7-B3/GpL16-k0 (=100).

Take B2: the He/Con_3a was 102 % of GpH7-A5/GpH7-B3/GpL16-k0 (=100).

For the molecule B3, the He/Con_3a was 108 % of GpH7-A5/GpH7-B3/GpL16-k0 (=100).

B4: the He/Con_3a is 135 % of GpH7-A5/GpH7-B3/GpL16-k0 (=100).

On to B5, for which the He/Con_3a was 110 % of GpH7-A5/GpH7-B3/GpL16-k0 (=100).

On to B6, for which the Ho/Con_3a was 105 % of GpH7-B3/GpL16-k0 (=100).

For the molecule B7, the Ho/Con_3a is 114 % of GpH7-B3/GpL16-k0 (=100).

B8: the Ho/Con_3a is 103 % of GpH7-B3/GpL16-k0 (=100).

For the molecule B9, the He/Con_3a is 105 % of GpH7-A5/GpH7-B3/GpL16-k0 (=100).

With B10, the Ho/Con_3a was 146 % of GpH7-B3/GpL16-k0 (=100).

Turning to B11, the He/Con_3a is 102 % of GpH7-A5/GpH7-B3/GpL16-k0 (=100).

As to B12, the He/Con_3a is 102 % of GpH7-A5/GpH7-B3/GpL16-k0 (=100).

With B13, the Ho/Con_3a was 107 % of GpH7-B3/GpL16-k0 (=100).

With B14, the Ho/Con_3a is 112 % of GpH7-B3/GpL16-k0 (=100).

In the case of B15, the He/Con_3a is 113 % of GpH7-A5/GpH7-B3/GpL16-k0 (=100).

On to B16, for which the He/Con_3a is 108 % of GpH7-A5/GpH7-B3/GpL16-k0 (=100).

B17: the He/Con_3a was 102 % of GpH7-A5/GpH7-B3/GpL16-k0 (=100).

As for B18, the He/Con_3a was 103 % of GpH7-A5/GpH7-B3/GpL16-k0 (=100).
